How the values were obtained:
[1] = biological target: T1, CD16α (FcγRIIIa) V158 allotype, CD16α-6His (UniProt P08637 P08637:17-208); assay: filter; dot blot; allotype not specified for this assay; details: tags: 6His
c-Met Fc fusion [2] = biological target: T2, c-Met Fc fusion (UniProt P08581 P08581:25-932); assay: filter; 91±40 pM, n=3, dot blot; heading cites SEQ ID NO 53 but CLN0003 is SEQ 52; details: tags: Fc-His fusion; chain copies: 2
c-Met Fc fusion [3] = biological target: T2, c-Met Fc fusion; assay: filter; complete loss of binding, dot blot; details: tags: Fc-His fusion; chain copies: 2
CD16β (FcγRIIIb) = CD16β (FcγRIIIb) (UniProt O75015 O75015:17-200); assay: filter; dot blot; details: tags: 10His
[4] = biological target: T1, CD16α (FcγRIIIa) V158 allotype, …; assay: filter; 45±28 nM, n=10, dot blot; details: tags: 6His
c-Met Fc fusion [5] = biological target: T2, c-Met Fc fusion; assay: filter; dot blot; picomolar; details: tags: Fc-His fusion; chain copies: 2
c-Met Fc fusion [6] = biological target: T2, c-Met Fc fusion; assay: filter; nearly similar affinity as full length; details: tags: Fc-His fusion; chain copies: 2
c-Met Fc fusion [7] = biological target: T2, c-Met Fc fusion; assay: filter; dot blot; details: tags: Fc-His fusion; chain copies: 2
c-Met Fc fusion [8] = biological target: T2, c-Met Fc fusion; assay: filter; picomolar Kd, number only in figure; EMSA also shows binding; details: tags: Fc-His fusion; chain copies: 2
[9] = biological target: T1, CD16α (FcγRIIIa) V158 allotype, …; assay: filter; 38±26 nM, n=4, dot blot; broad unspecific cell binding in FACS; details: tags: 6His
c-Met Fc fusion [10] = biological target: T2, c-Met Fc fusion; assay: filter; c-Met aptamer at 3' end performed best; dot blot; details: tags: Fc-His fusion; chain copies: 2
[11] = biological target: T1, CD16α (FcγRIIIa) V158 allotype, …; assay: filter; dot blot; details: tags: 6His
c-Met Fc fusion [12] = biological target: T2, c-Met Fc fusion; assay: filter; picomolar Kd, number only in figure; details: tags: Fc-His fusion; chain copies: 2
c-Met Fc fusion [13] = biological target: T2, c-Met Fc fusion; assay: filter; 11±6 nM, n=6, dot blot; FIG. 2 legend gives 57 nM; heading cites SEQ ID NO 54 but CLN0004 is SEQ 53; details: tags: Fc-His fusion; chain copies: 2

Chain of CD16β (FcγRIIIb) (O75015 17-200, one chain of several): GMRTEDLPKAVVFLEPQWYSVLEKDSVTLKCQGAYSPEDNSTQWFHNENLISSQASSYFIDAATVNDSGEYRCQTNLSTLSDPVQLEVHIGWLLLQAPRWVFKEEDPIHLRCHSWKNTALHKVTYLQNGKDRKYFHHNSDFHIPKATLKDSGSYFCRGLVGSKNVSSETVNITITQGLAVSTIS
T2 sequence (P08581 25-932, one chain of several): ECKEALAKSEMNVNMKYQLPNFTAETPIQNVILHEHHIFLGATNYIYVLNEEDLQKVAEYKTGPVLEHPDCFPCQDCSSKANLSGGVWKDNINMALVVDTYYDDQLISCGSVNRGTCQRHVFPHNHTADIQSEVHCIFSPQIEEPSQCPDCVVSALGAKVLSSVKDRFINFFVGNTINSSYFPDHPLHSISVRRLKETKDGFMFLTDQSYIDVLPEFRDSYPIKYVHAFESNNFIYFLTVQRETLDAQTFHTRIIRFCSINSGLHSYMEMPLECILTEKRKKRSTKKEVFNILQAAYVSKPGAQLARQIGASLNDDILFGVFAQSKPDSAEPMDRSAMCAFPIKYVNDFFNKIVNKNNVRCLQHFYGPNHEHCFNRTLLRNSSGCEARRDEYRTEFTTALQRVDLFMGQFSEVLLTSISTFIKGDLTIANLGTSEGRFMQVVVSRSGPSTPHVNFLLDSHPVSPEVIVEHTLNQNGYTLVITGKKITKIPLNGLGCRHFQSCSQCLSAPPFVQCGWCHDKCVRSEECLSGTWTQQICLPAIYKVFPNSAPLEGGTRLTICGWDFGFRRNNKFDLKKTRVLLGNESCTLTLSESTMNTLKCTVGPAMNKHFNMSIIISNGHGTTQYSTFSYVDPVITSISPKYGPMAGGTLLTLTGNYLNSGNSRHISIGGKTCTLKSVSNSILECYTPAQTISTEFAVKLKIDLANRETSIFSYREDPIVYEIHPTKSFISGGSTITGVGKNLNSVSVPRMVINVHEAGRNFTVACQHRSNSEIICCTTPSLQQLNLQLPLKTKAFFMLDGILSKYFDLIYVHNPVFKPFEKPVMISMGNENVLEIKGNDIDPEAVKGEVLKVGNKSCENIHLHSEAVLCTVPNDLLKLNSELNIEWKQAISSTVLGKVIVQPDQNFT
T1 sequence (P08637 17-208, one chain of several): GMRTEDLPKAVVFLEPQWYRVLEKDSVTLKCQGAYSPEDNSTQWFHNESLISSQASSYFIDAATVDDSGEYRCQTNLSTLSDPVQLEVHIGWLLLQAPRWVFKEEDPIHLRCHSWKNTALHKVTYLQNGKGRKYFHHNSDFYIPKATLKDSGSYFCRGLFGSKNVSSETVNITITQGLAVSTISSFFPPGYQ

B1: bsA16 (ssDNA)
DNA: GAGTGCGTAATGGTACGATTTGGGAAGTGGCTTGGGGTGGGATTAGTTTTGGAGTACTCGCTCCGGAGGGAAAAGTTATCAGGCAGAGGGGAGGGTCGGGTATCGGCGTGTTCGGGGGATCTGCGATTAGTTTTGGAGTACTCGCTCC
Kd [1]: 178 nM

B2: CLN0003 (ssDNA)
DNA: GGAGGGAAAAGTTATCAGGCTGGATGGTAGCTCGGTCGGGGTGGGTGGGTTGGCAAGTCTGATTAGTTTTGGAGTACTCGCTCC
Kd (c-Met Fc fusion [2]): 0.091 nM

GAGTGCGTAATGGTACGATTTGGGAAGTGGCTTGGGGTGG (ssDNA) [CLN0004 without flanking sequences]
binding result (c-Met Fc fusion [3]): no binding

B3: CLN0020 (ssDNA)
DNA: GGAGGGAAAAGTTATCAGGCCACTGCGGGGGTCTATACGTGAGGAAGAAGTGGGCAGGTCGATTAGTTTTGGAGTACTCGCTCC
binding result (CD16β (FcγRIIIb)): no binding | Kd [4]: 45 nM

B4: bsA17 (ssDNA)
DNA: CCACTGCGGGGGTCTATACGTGAGGAAGAAGTGGGCAGGTCGGAGGGAAAAGTTATCAGGCTGGATGGTAGCTCGGTCGGGGTGGGTGGGTTGGCAAGTCTGATTAGTTTTGGAGTACTCGCTCC
Kd [1]: 19 nM | Kd (c-Met Fc fusion [5]): 0.352 nM

CCACTGCGGGGGTCTATACGTGAGGAAGAAGTGG (ssDNA) [-19CLN0020-31 (34mer, MS3)]
Kd [1]: 47 nM

GAGTGCGTAATGGTACGATTTGGGAAGTGGCTTGGGGTGGG (ssDNA) [-20CLN0004-23 (41mer, MS2, with G61)]
binding result (c-Met Fc fusion [6]): binds

B5: bsA12 (ssDNA)
DNA: CCACTGCGGGGGTCTATACGTGAGGAAGAAGTGGGCAGGTCGATTAGTTTTGGAGTACTCGCTCCGGAGGGAAAAGTTATCAGGCGAGTGCGTAATGGTACGATTTGGGAAGTGGCTTGGGGTGGGATTAGTTTTGGAGTACTC
Kd (c-Met Fc fusion [7]): 18 nM

B6: bsA11 (ssDNA)
DNA: CCACTGCGGGGGTCTATACGTGAGGAAGAAGTGGGCAGGTCGATTAGTTTTGGAGTACTCGCTCCGGAGGGAAAAGTTATCAGGCTGGATGGTAGCTCGGTCGGGGTGGGTGGGTTGGCAAGTCTGATTAGTTTTGGAGTACTCGCTCC
binding result (c-Met Fc fusion [8]): binds

B7: CLN0018 (ssDNA)
DNA: GGAGGGAAAAGTTATCAGGCATCACGTGGTGGGCAAATAACCGGTTGGGGTGGGTCGAGGGATTAGTTTTGGAGTACTCGCTCC
Kd [9]: 38 nM | binding result (CD16β (FcγRIIIb)): no binding

B8: bsA19 (ssDNA)
DNA: CCACTGCGGGGGTCTATACGTGAGGAAGAAGTGGGCAGGTCAAAAAAAAAAAAAAAGGAGGGAAAAGTTATCAGGCTGGATGGTAGCTCGGTCGGGGTGGGTGGGTTGGCAAGTCT
binding result (c-Met Fc fusion [10]): binds

B9: bsA20 (ssDNA)
DNA: CCACTGCGGGGGTCTATACGTGAGGAAGAAGTGGGCAGGTCGGAGGGAAAAGTTATCAGGCTGGATGGTAGCTCGGTCGGGGTGGGTGGGTTGGCAAGTCT
Kd (c-Met Fc fusion [7]): 5 nM

B10: bsA18 (ssDNA)
DNA: CCACTGCGGGGGTCTATACGTGAGGAAGAAGTGGGCAGGTCATCAGGCGAGTGCGTAATGGTACGATTTGGGAAGTGGCTTGGGGTGGGATTAGTTTTGGAGTACTC
binding result (c-Met Fc fusion [10]): binds

B11: bsA3 (ssDNA)
DNA: CCACTGCGGGGGTCTATACGTGAGGAAGAAGTGGGCAGGTCAAAAAAAAAAAAAAAGAGTGCGTAATGGTACGATTTGGGAAGTGGCTTGGGGTGGG
binding result (c-Met Fc fusion [10]): binds

B12: bsA22 (ssDNA)
DNA: CCACTGCGGGGGTCTATACGTGAGGAAGAAGTGGAAAAAAAAAAAAAAAGGAGGGAAAAGTTATCAGGCTGGATGGTAGCTCGGTCGGGGTGGGTGGGTTGGCAAGTCTGATTAGTTTTGGAGTACTCGCTCC
binding result (c-Met Fc fusion [8]): binds

B13: CLN0123 (ssDNA)
DNA: GGAGGGAAAAGTTATCAGGCAGAGGGGAGGGTCGGGTATCGGCGTGTTCGGGGGATCTGCGATTAGTTTTGGAGTACTCGCTCC
binding result (CD16β (FcγRIIIb)): no binding | Kd [11]: 231 nM

B14: bsA13 (ssDNA)
DNA: GAGTGCGTAATGGTACGATTTGGGAAGTGGCTTGGGGTGGGATTAGTTTTGGAGTACTCGCTCCGGAGGGAAAAGTTATCAGGCCACTGCGGGGGTCTATACGTGAGGAAGAAGTGG
Kd (c-Met Fc fusion [7]): 18 nM

B15: bsA9 (ssDNA)
DNA: GGAGGGAAAAGTTATCAGGCCACTGCGGGGGTCTATACGTGAGGAAGAAGTGGGCAGGTCGATTAGTTTTGGAGTACTCGCTCCGGAGGGAAAAGTTATCAGGCTGGATGGTAGCTCGGTCGGGGTGGGTGGGTTGGCAAGTCTGATTAGTTTTGGAGTACTCGCTCC
binding result (c-Met Fc fusion [12]): binds

B16: CLN0004 (ssDNA)
DNA: GGAGGGAAAAGTTATCAGGCGAGTGCGTAATGGTACGATTTGGGAAGTGGCTTGGGGTGGGATTAGTTTTGGAGTACTCGCTCC
Kd (c-Met Fc fusion [13]): 11 nM

B17: bsA15 (ssDNA)
DNA: GGAGGGAAAAGTTATCAGGCAGAGGGGAGGGTCGGGTATCGGCGTGTTCGGGGGATCTGCGATTAGTTTTGGAGTACTCGCTCCGGAGGGAAAAGTTATCAGGCTGGATGGTAGCTCGGTCGGGGTGGGTGGGTTGGCAAGTCTGATTAGTTTTGGAGTACTCGCTCC
Kd [1]: 174 nM

B18: bsA31 (ssDNA)
DNA: CCACTGCGGGGGTCTATACGTGAGGAAGAAGTGGGCAGGTCAAAAAAAAAAAAAAAGAGTGCGTAATGGTACGATTTGGGAAGTGGCTTGGGGTGGGATTAGTTTTGGAGTACTCGCTCC
Kd (c-Met Fc fusion [7]): 92 nM | Kd [1]: 24 nM

B19: bsA10 (ssDNA)
DNA: GGAGGGAAAAGTTATCAGGCTGGATGGTAGCTCGGTCGGGGTGGGTGGGTTGGCAAGTCTGATTAGTTTTGGAGTACTCGCTCCGGAGGGAAAAGTTATCAGGCCACTGCGGGGGTCTATACGTGAGGAAGAAGTGGGCAGGTCGATTAGTTTTGGAGTACTCGCTCC
binding result (c-Met Fc fusion [12]): binds

B20: bsA21 (ssDNA)
DNA: CCACTGCGGGGGTCTATACGTGAGGAAGAAGTGGGCAGGTCAAAAAAAAAAAAAAAGGAGGGAAAAGTTATCAGGCTGGATGGTAGCTCGGTCGGGGTGGGTGGGTTGGCAAGTCTGATTAGTTTTGGAGTACTCGCTCC
binding result (c-Met Fc fusion [12]): binds
